In US20170306033A1 (Amgen, published 2017):

Assays:
[1] = target: human CGRP receptor (human, UniProt Q16602 23-461; O60894 27-148); assay: cell-based or functional assay
[2] = target: T1, human PAC1 receptor (human, UniProt P41586 21-468); assay: cell-based or functional assay
T1 sequence: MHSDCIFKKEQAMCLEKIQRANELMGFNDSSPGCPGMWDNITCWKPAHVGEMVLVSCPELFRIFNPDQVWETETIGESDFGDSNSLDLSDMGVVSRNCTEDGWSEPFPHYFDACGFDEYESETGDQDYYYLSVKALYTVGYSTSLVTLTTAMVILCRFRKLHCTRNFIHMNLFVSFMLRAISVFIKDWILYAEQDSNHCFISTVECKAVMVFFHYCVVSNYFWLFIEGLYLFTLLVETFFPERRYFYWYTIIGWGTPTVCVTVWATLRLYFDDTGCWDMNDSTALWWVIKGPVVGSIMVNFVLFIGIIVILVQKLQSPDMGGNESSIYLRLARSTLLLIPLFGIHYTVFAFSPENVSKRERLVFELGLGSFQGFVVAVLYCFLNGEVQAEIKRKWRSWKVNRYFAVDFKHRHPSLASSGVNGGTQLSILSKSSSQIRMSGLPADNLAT

human CGRP receptor, sequence (Q16602 23-461 limits assumed, chain 1 of 2): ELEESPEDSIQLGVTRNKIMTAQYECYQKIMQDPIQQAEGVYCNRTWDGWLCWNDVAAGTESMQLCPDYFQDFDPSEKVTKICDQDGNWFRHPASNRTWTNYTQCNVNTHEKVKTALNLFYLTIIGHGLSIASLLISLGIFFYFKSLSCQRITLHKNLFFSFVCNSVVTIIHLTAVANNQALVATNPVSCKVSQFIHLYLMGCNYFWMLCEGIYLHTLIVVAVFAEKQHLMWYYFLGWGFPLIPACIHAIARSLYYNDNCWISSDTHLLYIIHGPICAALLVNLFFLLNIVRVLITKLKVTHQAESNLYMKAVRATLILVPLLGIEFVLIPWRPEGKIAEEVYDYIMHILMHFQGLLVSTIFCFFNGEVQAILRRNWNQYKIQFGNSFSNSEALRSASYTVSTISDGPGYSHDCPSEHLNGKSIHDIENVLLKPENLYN
human CGRP receptor, sequence (O60894 27-148 limits assumed, chain 2 of 2): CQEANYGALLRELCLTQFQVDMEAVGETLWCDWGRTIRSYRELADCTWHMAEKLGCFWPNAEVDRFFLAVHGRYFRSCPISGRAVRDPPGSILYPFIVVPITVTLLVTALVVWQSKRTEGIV

Binder	% inhibition of human CGRPR [1] [%]	% inhibition of human PAC1 [2] [%]
iPS:327735 (bispecific antibody, human IgG1, kappa, lambda, N297G) light 1: DIQMTQSPSSLSASVGDRITITCRASQSISRYLNWYQQKPGKAPKLLIYAASSLQSGIPSRFSGSGSGTDFTLTINSLQPEDFATYFCQQSYSPPFTFGEGTKVDIKRTVAAPSVFIFPPSDEQLKSGTASVVCLLNNFYPREAKVQWKVDNALQSGNSQESVTEQDSKDSTYSLESTLTLSKADYEKHKVYACEVTHQGLSSPVTKSFNRGEC heavy 1: not shown light 2: QSVLTQPPSVSAAPGQKVTISCSGSSSNIGNNYVSWYQQLPGTAPKLLIYDNNKRPSGIPDRFSGSKSGTSATLGITGLQTGDEADYYCGTWDSRLSAVVFGKGTKLTVLGQPKANPTVTLFPPSSEELQANKATLVCLISDFYPGAVTVAWKADGSPVKAGVETTKPSKQSNNKYAAKSYLSLTPEQWKSHRSYSCQVTHEGSTVEKTVAPTECS heavy 2: QVQLVESGGGVVQPGRSLRLSCAASGFTFSSFGMHWVRQAPGKELEWVAVISFDGSIKYSVDSVKGRFTISRDNSKNTLFLQMNSLRAEDTAVYYCARDRLNYYESSGYYHYKYYGMAVWGQGTTVTVSSASTKGPSVFPLAPSSKSTSGGTAALGCLVKDYFPEPVTVSWNSGALTSGVHTFPAVLQSSGLYSLESVVTVPSSSLGTQTYICNVNHKPSNTKVDKKVEPKSCDKTHTCPPCPAPELLGGPSVFLFPPKPKDTLMISRTPEVTCVVVDVSHEDPEVKFNWYVDGVEVHNAKTKPCEEQYGSTYRCVSVLTVLHQDWLNGKEYKCKVSNKALPAPIEKTISKAKGQPREPQVYTLPPSRKEMTKNQVSLTCLVKGFYPSDIAVEWESNGQPENNYKTTPPVLKSDGSFFLYSKLTVDKSRWQQGNVFSCSVMHEALHNHYTQKSLSLSPGK	81	68
iPS:327726 (bispecific antibody, human IgG1, kappa, lambda, N297G) light 1: EIVLTQSPATLSLSPGERATLSCRASQSVGRSLHWYQQKPGQAPRLLIKYASQSLSGIPARFSGSGSGTDFTLTISSLEPEDFAVYYCHQSSRLPFTFGEGTKVDIKRTVAAPSVFIFPPSDEQLKSGTASVVCLLNNFYPREAKVQWKVDNALQSGNSQESVTEQDSKDSTYSLESTLTLSKADYEKHKVYACEVTHQGLSSPVTKSFNRGEC heavy 1: not shown light 2: QSVLTQPPSVSAAPGQKVTISCSGSSSNIGNNYVSWYQQLPGTAPKLLIYDNNKRPSGIPDRFSGSKSGTSATLAITGLQTGDEADYYCGTWDSRLSAVVFGKGTKLTVLGQPKANPTVTLFPPSSEELQANKATLVCLISDFYPGAVTVAWKADGSPVKAGVETTKPSKQSNNKYAAKSYLSLTPEQWKSHRSYSCQVTHEGSTVEKTVAPTECS heavy 2: QVQLVESGGGVVQPGRSLRLSCAASGFTFSSFGMHWVRQAPGKELEWVAVISFDGSIKYSVDSVKGRFTISRDNSKNTLFLQMNSLRAEDTAVYYCARDRLNYYDSSGYYHYKYYGMAVWGQGTTVTVSSASTKGPSVFPLAPSSKSTSGGTAALGCLVKDYFPEPVTVSWNSGALTSGVHTFPAVLQSSGLYSLESVVTVPSSSLGTQTYICNVNHKPSNTKVDKKVEPKSCDKTHTCPPCPAPELLGGPSVFLFPPKPKDTLMISRTPEVTCVVVDVSHEDPEVKFNWYVDGVEVHNAKTKPCEEQYGSTYRCVSVLTVLHQDWLNGKEYKCKVSNKALPAPIEKTISKAKGQPREPQVYTLPPSRKEMTKNQVSLTCLVKGFYPSDIAVEWESNGQPENNYKTTPPVLKSDGSFFLYSKLTVDKSRWQQGNVFSCSVMHEALHNHYTQKSLSLSPGK	91	77
